The source of these data is patent US20240116985A1, “STAPLED PEPTIDES AND METHODS THEREOF” (priority 2020, published 2024).

Starred links: 1 amine or outer side, 2 acyl side, 3 side chain; linkers in the order of their positions; H or OH if unused. Positions of bridges follow the written chain, without caps; N, C: chain ends. Non-standard residues stand in square brackets, D forms with d. Primed or numbered codes have the meaning given here. PyrS2(3) = (S)-3-amino-1-((pent-4-en-1-yloxy)carbonyl)pyrrolidine-3-carboxylic acid, stapling residue, C=CCCCOC(=O)N1CC[C@@](N[*:1])(C(=O)[*:2])C1; PyrS2″ = (S)-3-amino-1-((pent-4-en-1-yloxy)carbonyl)pyrrolidine-3-carboxylic acid (stapling residue), C=CCCCOC(=O)N1CC[C@@](N[*:1])(C(=O)[*:2])C1; B5(4) = 2,2-bis(4-pentenyl)glycine = 2-amino-2-(pent-4-en-1-yl)hept-6-enoic acid (stitching residue), C=CCCCC(CCCC=C)(N[*:1])C(=O)[*:2]; B5(5) = 2,2-bis(4-pentenyl)glycine, 2-amino-2-(pent-4-en-1-yl)hept-6-enoic acid (stitching residue), C=CCCCC(CCCC=C)(N[*:1])C(=O)[*:2]; B5(21) = 2-amino-2-(pent-4-en-1-yl)hept-6-enoic acid, bis(4-pentenyl)glycine (stitching residue), C=CCCCC(CCCC=C)(N[*:1])C(=O)[*:2]; PyrS2 = (S)-3-amino-1-((pent-4-en-1-yloxy)carbonyl)pyrrolidine-3-carboxylic acid, C=CCCCOC(=O)N1CC[C@@](N[*:1])(C(=O)[*:2])C1; B5(12) = 2-amino-2-(pent-4-en-1-yl)hept-6-enoic acid (two olefin side chains), C=CCCCC(CCCC=C)(N[*:1])C(=O)[*:2]; B5(22) = 2-amino-2-(pent-4-en-1-yl)hept-6-enoic acid (two alkene side chains), C=CCCCC(CCCC=C)(N[*:1])C(=O)[*:2]; 4TriA = (S)-2-amino-3-(1H-1,2,3-triazol-4-yl)propanoic acid, O=C([C@H](Cc1c[nH]nn1)N[*:1])[*:2]; B5(3) = 2,2-bis(4-pentenyl)glycine (stitching residue), C=CCCCC(CCCC=C)(N[*:1])C(=O)[*:2]; B5″ = 2,2-bis(4-pentenyl)glycine, stitching residue, C=CCCCC(CCCC=C)(N[*:1])C(=O)[*:2]; B5 = 2-amino-2-(pent-4-en-1-yl)hept-6-enoic acid, C=CCCCC(CCCC=C)(N[*:1])C(=O)[*:2]; Ala(4-thiazolyl) = N[C@@H](Cc1cscn1)C(=O)O; Phe(2-Cl) = N[C@@H](Cc1ccccc1Cl)C(=O)O; Bta = N[C@@H](Cc1csc2ccccc12)C(=O)O; αAllylPro = C=CC[C@@]1(C(=O)O)CCCN1; tBuAla = CC(C)(C)C[C@H](N)C(=O)O; 3Thi = N[C@@H](Cc1ccsc1)C(=O)O; S8 = C=CCCCCCC[C@](C)(N)C(=O)O; R5 = C=CCCC[C@@](C)(N)C(=O)O; hSer = N[C@@H](CCO)C(=O)O; Nle = CCCC[C@H](N)C(=O)O; Aib = CC(C)(N)C(=O)O

The target of test [1] is full-length beta-Catenin (Uniprot ID P35222) (Homo sapiens (Human)) (UniProt P35222). Briefly: fluorescence polarization competition; 5FAM-TCF4(10-53) probe displaced from full-length beta-catenin.
Target sequence in this assay (P35222 2-781 limits assumed): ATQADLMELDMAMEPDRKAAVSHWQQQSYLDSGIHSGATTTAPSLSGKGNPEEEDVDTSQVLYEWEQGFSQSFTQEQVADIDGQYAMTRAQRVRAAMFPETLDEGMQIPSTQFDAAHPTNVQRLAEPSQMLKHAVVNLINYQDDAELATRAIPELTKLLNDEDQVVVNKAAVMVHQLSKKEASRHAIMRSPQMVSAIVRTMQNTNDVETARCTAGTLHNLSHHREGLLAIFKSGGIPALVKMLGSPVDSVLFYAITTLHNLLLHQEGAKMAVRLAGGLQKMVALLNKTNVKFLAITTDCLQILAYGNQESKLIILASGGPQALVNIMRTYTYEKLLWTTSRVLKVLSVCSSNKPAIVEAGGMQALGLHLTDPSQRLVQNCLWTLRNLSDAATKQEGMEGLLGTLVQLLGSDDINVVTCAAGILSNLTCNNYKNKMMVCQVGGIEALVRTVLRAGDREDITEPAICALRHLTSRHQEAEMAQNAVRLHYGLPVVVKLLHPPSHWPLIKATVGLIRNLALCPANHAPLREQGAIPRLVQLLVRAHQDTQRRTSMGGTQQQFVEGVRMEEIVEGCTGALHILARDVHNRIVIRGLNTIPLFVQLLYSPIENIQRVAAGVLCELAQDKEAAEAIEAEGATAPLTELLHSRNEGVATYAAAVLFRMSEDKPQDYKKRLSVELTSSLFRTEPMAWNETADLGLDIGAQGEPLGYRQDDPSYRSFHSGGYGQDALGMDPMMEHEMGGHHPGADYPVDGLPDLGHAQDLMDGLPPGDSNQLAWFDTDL
Test [2] deals with beta-catenin (Homo sapiens (Human)) (UniProt P35222). Nature of the test: fluorescence polarization competition; full-length beta-catenin with 5FAM-TCF4(10-53) probe as competitor.
The target of test [3] is full-length beta-Catenin (Uniprot ID P35222) (Homo sapiens (Human)) (UniProt P35222). Briefly: fluorescence polarization competition, peptide titrated against full-length beta-catenin + 5FAM-TCF4(10-53).
Target sequence in this assay (P35222 2-781 limits assumed): as above
For test [4] the target is unchanged. Briefly: fluorescence polarization competition; 10 nM full-length beta-catenin with 10 nM 5FAM-TCF4(10-53) probe as competitor.
Target sequence in this assay (P35222 2-781 limits assumed): as above
For test [5] the target is unchanged. Briefly: fluorescence polarization competition; full-length beta-catenin; competitor 5FAM-TCF4(10-53) probe.
Target sequence in this assay (P35222 whole entry, one chain of several): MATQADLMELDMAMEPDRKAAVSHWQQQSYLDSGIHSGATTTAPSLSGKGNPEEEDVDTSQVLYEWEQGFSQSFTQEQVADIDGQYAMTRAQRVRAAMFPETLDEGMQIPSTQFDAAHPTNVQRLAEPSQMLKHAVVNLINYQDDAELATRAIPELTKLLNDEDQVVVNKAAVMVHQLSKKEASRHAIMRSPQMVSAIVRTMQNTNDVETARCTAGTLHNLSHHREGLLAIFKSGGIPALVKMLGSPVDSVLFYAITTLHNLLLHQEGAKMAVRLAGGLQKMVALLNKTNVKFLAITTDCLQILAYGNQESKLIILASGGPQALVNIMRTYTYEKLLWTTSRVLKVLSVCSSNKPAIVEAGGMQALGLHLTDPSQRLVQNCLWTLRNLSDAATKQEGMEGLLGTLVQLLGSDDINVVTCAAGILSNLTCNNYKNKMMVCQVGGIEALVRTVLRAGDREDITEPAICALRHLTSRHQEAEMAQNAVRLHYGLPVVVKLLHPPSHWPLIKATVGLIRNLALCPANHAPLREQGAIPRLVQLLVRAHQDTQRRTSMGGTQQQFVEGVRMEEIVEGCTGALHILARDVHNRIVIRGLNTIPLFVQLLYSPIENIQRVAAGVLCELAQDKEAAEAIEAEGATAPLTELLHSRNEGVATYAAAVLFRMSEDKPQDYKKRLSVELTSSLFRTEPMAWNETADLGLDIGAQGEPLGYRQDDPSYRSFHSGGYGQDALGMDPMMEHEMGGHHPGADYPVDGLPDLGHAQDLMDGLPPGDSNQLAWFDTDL
Test [6] has the same target. Briefly: fluorescence polarization competition, displacement of 5FAM-TCF4 10-53 from full-length beta-catenin.
Target sequence in this assay (P35222 2-781 limits assumed): as the sequence (P35222 2-781 limits assumed) above

Chain of beta-catenin (Homo sapiens (Human)) (P35222 whole entry): as the sequence (P35222 whole entry, one chain of several) above

Take Ac-[αAllylPro]D[tBuAla][B5(5)]DDAAFL[PyrS2″][Phe(2-Cl)][Bta]L-NH2 (staple 1-4, 4-11; also: staple isomer, earlier eluting HPLC peak) [I-1416]: the IC50 in test [1] stood at 57 nM. Further, the concentration for a half-maximal effect (EC50) in test [2] came to 57 nM.

Take Ac-[αAllylPro]D[tBuAla][B5]DDAAFN[PyrS2″][3Thi][Bta]N-NH2 (staple 1-4, 4-11) [I-816]: the EC50 in test [3] worked out at 5 nM. Also, the half-maximal inhibitory concentration (IC50) in test [4] was 5 nM.

Ac-[αAllylPro]D[tBuAla][B5(3)]DDAA[Ala(4-thiazolyl)]N[PyrS2″][3Thi][Bta]Q-NH2 (staple 1-4, 4-11) [I-812]: in test [3], the EC50 amounted to 33 nM. For the same molecule, the IC50 in test [4] came to 33 nM.

For Ac-[αAllylPro]D[tBuAla][B5(4)]DDAAFL[S8][Phe(2-Cl)][Bta]H-NH2 (staple 1-4, 4-11) [I-1194], in test [5], the EC50 was 66.5 nM. In test [6], this molecule gave an IC50 of 66.5 nM.

For the molecule Ac-[αAllylPro]D[tBuAla][B5(4)]DDAAFL[S8][Phe(2-Cl)][Bta][4TriA]-NH2 (staple 1-4, 4-11) [I-1192], the EC50 in test [5] turned out to be 81.5 nM. The same molecule registered a 50% inhibitory concentration (IC50) in test [6] of 81.5 nM.

The molecule Ac-PD[tBuAla][R5]DDAAFN[PyrS2″][3Thi][Bta]Q-NH2 (staple 4-11) [I-1182] yielded an EC50 in test [5] of 144 nM. In addition, the half-maximal inhibitory concentration (IC50) in test [6] was 144 nM.

Take Ac-[αAllylPro]D[tBuAla][B5(4)]DDAAFL[S8][3Thi][Bta]T-NH2 (staple 1-4, 4-11) [I-1191]: the EC50 in test [5] is 38.5 nM. Also, in test [6], the IC50 amounted to 38.5 nM.

Ac-[αAllylPro]D[tBuAla][B5(4)]DDAAFL[S8][Phe(2-Cl)][Bta]S-NH2 (staple 1-4, 4-11) [I-1189] registered an EC50 in test [5] of 94.5 nM. This molecule also came in with an IC50 in test [6] of 94.5 nM.

Ac-[αAllylPro]D[tBuAla][B5(21)]DD[Aib][Aib]FL[PyrS2″][3Thi][Bta]Q-NH2 (staple 1-4, 4-11; also: later eluting HPLC peak (staple isomer composition)) [I-1180] had a half-maximal effective concentration (EC50) in test [5] of 87 nM. In addition, the concentration for half-maximal inhibition (IC50) in test [6] is 87 nM.

For the molecule Ac-[αAllylPro]D[tBuAla][B5]DDAAFN[PyrS2″][3Thi][Bta]T-NH2 (staple 1-4, 4-11) [I-814], the EC50 in test [3] amounted to 7 nM. The concentration for half-maximal inhibition (IC50) in test [4] stood at 7 nM.

Take Ac-[αAllylPro]D[tBuAla][B5]DDAAFN[PyrS2″][3Thi][Bta]S-NH2 (staple 1-4, 4-11) [I-815]: the concentration giving a half-maximal response (EC50) in test [3] came out at 5 nM. In addition, the 50% inhibitory concentration (IC50) in test [4] was found to be 5 nM.

On to Ac-[αAllylPro]D[tBuAla][B5(5)]DDAAFL[PyrS2″][Phe(2-Cl)][Bta]L-NH2 (staple 1-4, 4-11) [I-1417], for which, in test [1], the half-maximal inhibitory concentration (IC50) was 198 nM. In test [2], this molecule yielded an EC50 of 198 nM.

Ac-[αAllylPro]D[tBuAla][B5(22)]DDAAFL[PyrS2][3Thi]WQ-NH2 (staple 1-4, 4-11) [I-1431] returned an IC50 in test [1] of 44 nM. The EC50 in test [2] stood at 34 nM.

Consider Ac-[αAllylPro]D[tBuAla][B5(3)]DDAAFT[PyrS2″][3Thi][Bta]H-NH2 (staple 1-4, 4-11) [I-810], for which the half-maximal effective concentration (EC50) in test [3] was 6 nM. The molecule further yielded an IC50 in test [4] of 6 nM.

Ac-[αAllylPro]D[tBuAla][B5″]DDAAFL[S8][3Thi][Bta]H-NH2 (staple 1-4, 4-11) [I-1195] gave a 50% effective concentration (EC50) in test [5] of 29.5 nM. This molecule also had an IC50 in test [6] of 29.5 nM.

As to Ac-PD[tBuAla][R5]DDAAFL[PyrS2(3)][3Thi][Bta]Q-NH2 (staple 4-11) [I-1181], in test [5], the half-maximal effective concentration (EC50) turned out to be 226 nM. For the same molecule, the 50% inhibitory concentration (IC50) in test [6] was determined as 297 nM.

Turning to Ac-[αAllylPro]D[tBuAla][B5(3)]DDAAFT[PyrS2″][3Thi][Bta]Q-NH2 (staple 1-4, 4-11) [I-809], the EC50 in test [3] is 5 nM. In test [4], this molecule gave a half-maximal inhibitory concentration (IC50) of 5 nM.

Consider Ac-[αAllylPro]D[tBuAla][B5]DDAAFN[PyrS2″][3Thi][Bta][dH]-NH2 (staple 1-4, 4-11) [I-813], for which the concentration giving a half-maximal response (EC50) in test [3] came out at 7 nM. The same molecule came in with a half-inhibitory concentration (IC50) in test [4] of 7 nM.

Ac-[αAllylPro]DT[B5(5)]DDAAFL[PyrS2″][3Thi][Bta]L-NH2 (staple 1-4, 4-11) [I-1415]: the IC50 in test [1] is 72 nM. This molecule also came in with a 50% effective concentration (EC50) in test [2] of 72 nM.

Ac-[αAllylPro]D[tBuAla][B5(4)]DDAAFL[S8][Phe(2-Cl)][Bta][hSer]-NH2 (staple 1-4, 4-11) [I-1196] registered a concentration giving a half-maximal response (EC50) in test [5] of 85 nM. Moreover, the IC50 in test [6] was determined as 85 nM.

In test [5], Ac-[αAllylPro]D[tBuAla][B5(4)]DDAAFL[S8][3Thi][Bta][4TriA]-NH2 (staple 1-4, 4-11) [I-1193] came in with an EC50 of 78.5 nM. In addition, the IC50 in test [6] amounted to 78.5 nM.

Ac-[αAllylPro]D[Nle][B5(5)]DDAAFL[PyrS2″][Phe(2-Cl)][Bta]L-NH2 (staple 1-4, 4-11; also: staple isomer of later HPLC peak) [I-1421]: the IC50 in test [1] is 134 nM. The molecule further displayed an EC50 in test [2] of 134 nM.

In turn, Ac-[αAllylPro]DS[B5(12)]DDAAFL[PyrS2″][3Thi][Bta]L-NH2 (staple 1-4, 4-11) [I-1414] returned an IC50 in test [1] of 84 nM. Moreover, in test [2], the concentration giving a half-maximal response (EC50) was determined as 84 nM.

Ac-[αAllylPro]D[Nle][B5(5)]DDAAFL[PyrS2″][Phe(2-Cl)][Bta]L-NH2 (staple 1-4, 4-11; also: staple isomer, earlier eluting HPLC peak) [I-1420] came in with a half-maximal inhibitory concentration (IC50) in test [1] of 124 nM. This molecule displayed a half-maximal effective concentration (EC50) in test [2] of 124 nM.

For the molecule Ac-[αAllylPro]D[tBuAla][B5(3)]DDAAFF[PyrS2″][3Thi][Bta]H-NH2 (staple 1-4, 4-11) [I-808], the half-maximal effective concentration (EC50) in test [3] was found to be 5 nM. This molecule displayed an IC50 in test [4] of 5 nM.
